The source of these data is paper PMC11182016, “Molecular basis of human poly(A) polymerase recruitment by mPSF” (RNA, 2024).

Holding throughout (details): both partners purified
In test [1] the target is T1, CPSF160–WDR33 (CPSF160 coexpressed with TwinStrep3C-WDR33 residues 1–413-FLAG) (human, UniProt Q10570 1-1443; Q9C0J8 1-413).
T1 construct: human CPSF160 (mPSF subunit); human WDR33 (mPSF subunit), residues 1-413; A 3C site follows the TwinStrep tag; no cleavage step is described; also called FLAG-tagged WDR33; source: Sf9, baculovirus coexpression, purified (StrepTactin XT, MonoQ, Superdex 200); not shown: FLAG, C-terminal, kept
T1 sequence (Q10570 whole entry, chain 1 of 2, the tested form may be a part): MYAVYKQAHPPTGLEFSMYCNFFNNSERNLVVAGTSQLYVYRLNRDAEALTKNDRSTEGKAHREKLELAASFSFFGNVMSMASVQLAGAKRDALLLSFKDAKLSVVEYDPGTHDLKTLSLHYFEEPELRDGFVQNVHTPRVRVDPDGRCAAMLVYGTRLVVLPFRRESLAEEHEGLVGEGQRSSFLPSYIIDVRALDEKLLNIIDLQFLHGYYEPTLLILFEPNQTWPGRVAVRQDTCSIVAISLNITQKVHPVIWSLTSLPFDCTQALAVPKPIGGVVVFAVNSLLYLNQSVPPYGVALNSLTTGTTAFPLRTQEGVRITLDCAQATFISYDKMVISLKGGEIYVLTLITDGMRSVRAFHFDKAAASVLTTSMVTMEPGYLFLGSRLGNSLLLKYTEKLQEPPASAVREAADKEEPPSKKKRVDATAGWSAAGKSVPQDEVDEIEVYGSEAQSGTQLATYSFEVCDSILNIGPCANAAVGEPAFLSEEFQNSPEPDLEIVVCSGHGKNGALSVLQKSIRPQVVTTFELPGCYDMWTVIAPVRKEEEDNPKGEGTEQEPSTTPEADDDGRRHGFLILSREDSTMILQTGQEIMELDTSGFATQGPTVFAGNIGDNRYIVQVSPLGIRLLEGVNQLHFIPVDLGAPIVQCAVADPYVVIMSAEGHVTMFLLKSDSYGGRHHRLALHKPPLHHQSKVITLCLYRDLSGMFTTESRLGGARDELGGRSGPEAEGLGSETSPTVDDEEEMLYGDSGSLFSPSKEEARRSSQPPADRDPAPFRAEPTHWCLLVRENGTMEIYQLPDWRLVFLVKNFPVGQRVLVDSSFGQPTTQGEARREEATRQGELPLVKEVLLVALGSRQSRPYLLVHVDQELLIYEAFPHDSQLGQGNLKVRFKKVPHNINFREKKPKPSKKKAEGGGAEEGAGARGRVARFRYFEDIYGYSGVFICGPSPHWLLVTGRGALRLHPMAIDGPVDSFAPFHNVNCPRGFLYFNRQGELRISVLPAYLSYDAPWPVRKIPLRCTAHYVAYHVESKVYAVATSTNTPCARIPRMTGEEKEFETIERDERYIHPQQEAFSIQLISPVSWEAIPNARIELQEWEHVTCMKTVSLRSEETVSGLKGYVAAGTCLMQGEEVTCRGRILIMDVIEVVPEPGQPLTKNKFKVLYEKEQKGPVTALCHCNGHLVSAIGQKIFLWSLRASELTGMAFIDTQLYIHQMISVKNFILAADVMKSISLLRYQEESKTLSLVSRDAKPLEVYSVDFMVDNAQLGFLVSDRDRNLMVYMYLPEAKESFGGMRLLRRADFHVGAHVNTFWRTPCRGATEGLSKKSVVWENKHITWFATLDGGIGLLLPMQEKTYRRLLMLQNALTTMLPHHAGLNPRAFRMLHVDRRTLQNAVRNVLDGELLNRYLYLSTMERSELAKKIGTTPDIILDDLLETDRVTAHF
T1 sequence (Q9C0J8 1-413, chain 2 of 2): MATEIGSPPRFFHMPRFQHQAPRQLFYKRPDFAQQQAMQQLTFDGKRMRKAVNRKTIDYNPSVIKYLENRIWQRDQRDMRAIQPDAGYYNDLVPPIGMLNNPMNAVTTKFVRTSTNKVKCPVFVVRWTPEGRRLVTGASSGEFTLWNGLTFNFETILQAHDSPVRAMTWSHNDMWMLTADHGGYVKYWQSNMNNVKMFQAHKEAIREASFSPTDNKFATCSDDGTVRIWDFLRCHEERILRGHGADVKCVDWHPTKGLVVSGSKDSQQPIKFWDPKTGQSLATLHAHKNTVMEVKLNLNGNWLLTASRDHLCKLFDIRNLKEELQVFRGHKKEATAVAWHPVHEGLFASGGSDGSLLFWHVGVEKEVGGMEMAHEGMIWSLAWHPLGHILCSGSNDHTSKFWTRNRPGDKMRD
Briefly: pull-down; FLAG pull-down on α-FLAG M2 Protein G Dynabeads; FLAG-tagged WDR33 (CPSF160–WDR33) 1.5 µM as bait, PAPOAC 15 µM; 20 mM HEPES-NaOH pH 7.5, 150 mM NaCl, 0.01% NP-40 substitute, no MgCl2, 4°C; Coomassie-stained SDS-PAGE.

The target in test [2] is T2, PAPOA structured core (His8-3C-PAPOA residues 1–513-FLAG), wild type (human, UniProt P51003 1-513).
T2 construct: A 3C site lies between His8 and PAPOA; no cleavage step is described in the purification; also called PAPOA core; PAPOA_(1–513); source: E. coli BL21 STAR (DE3) pRARE, purified (Talon, HiTrap Heparin, Superdex 200); not shown: FLAG, C-terminal, kept
T2 sequence (P51003 1-513): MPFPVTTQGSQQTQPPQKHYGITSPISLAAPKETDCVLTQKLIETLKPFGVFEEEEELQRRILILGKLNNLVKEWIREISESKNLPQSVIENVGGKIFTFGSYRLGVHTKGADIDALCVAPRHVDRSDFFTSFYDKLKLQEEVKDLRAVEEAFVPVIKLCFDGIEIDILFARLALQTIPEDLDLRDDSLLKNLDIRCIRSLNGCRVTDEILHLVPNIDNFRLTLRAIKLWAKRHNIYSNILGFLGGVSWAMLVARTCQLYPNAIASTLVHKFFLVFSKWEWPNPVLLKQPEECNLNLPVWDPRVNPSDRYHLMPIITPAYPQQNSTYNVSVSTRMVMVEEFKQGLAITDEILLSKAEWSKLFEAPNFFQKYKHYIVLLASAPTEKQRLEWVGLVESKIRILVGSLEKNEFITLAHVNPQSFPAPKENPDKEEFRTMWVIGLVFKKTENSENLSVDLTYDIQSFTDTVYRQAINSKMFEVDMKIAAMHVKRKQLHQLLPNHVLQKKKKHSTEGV
Put plainly: pull-down; FLAG pull-down on α-FLAG M2 Protein G Dynabeads; FLAG-tagged PAPOA core 2.5 µM as bait, PAPOAC 100 µM (40× excess); 20 mM HEPES-NaOH pH 7.5, 50 mM NaCl, 5 mM MgCl2, 0.01% NP-40 substitute, 4°C; Coomassie-stained SDS-PAGE.

In test [3] the target is T2, PAPOA structured core (His8-3C-PAPOA …). Briefly: pull-down; FLAG pull-down on α-FLAG M2 Protein G Dynabeads; FLAG-tagged PAPOA core 2.5 µM as bait, FIP1 25 µM (10× excess); 20 mM HEPES-NaOH pH 7.5, 150 mM NaCl, 5 mM MgCl2, 0.01% NP-40 substitute, 4°C; Coomassie-stained SDS-PAGE.

B1: minimal PAPOAC construct (His6-MBP-3C-PAPOA residues 720–745), wild type (peptide)
chain: DLSDIPALPANPIPVIKNSIKLRLNR
notes: human poly(A) polymerase alpha (PAPOA), C-terminal motif, residues 720-745; A 3C site follows MBP; no cleavage step is described in the purification; also called PAPOA C terminus; PAPOAC peptide; source: E. coli BL21 STAR (DE3) pRARE, purified (Amylose resin, Superdex 200)
As for B1, the binding result in test [1] and in test [2] was “binds” each time.

B2: minimal FIP1 construct (His6-MBP-3C-FIP1 residues 80–113), wild type (peptide, UniProt Q6UN15 80-113, looked up)
chain: ETEDDSDSDSDDDEDDVHVTIGDIKTGAPQYGSY
notes: A 3C site follows MBP; no cleavage step is described in the purification; also called minimal FIP1 peptide; source: E. coli BL21 STAR (DE3) pRARE, purified (Amylose resin, Superdex 200)
With B2, the binding result in test [3] is reported as “binds”.
